This is an account of results in the supplement of paper PMC9170038.

This data set deals with K4 kissing-loop RNA reporter. The data set can be described thus: apparent KD of K4 kissing-loop reporter; higher = weaker reporter binding. The conditions noted are these: Eterna round: R107. As to the method:
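RNA-MaP round R107: designed RNA switches with theophylline, tryptophan, arginine or FMN aptamers are transcribed on-chip within common flanks. They are titrated with a labelled K4 kissing-loop RNA reporter in RNA-MaP buffer (100 mM Tris pH 7.5, 80 mM KCl, 4 mM MgCl2), without ligand or with the indicated ligand. Median apparent KD per design.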

Setting [1] is: input ligand: theophylline 20 uM.
[2] abbreviates: input ligand: tryptophan 2.4 mM.
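Note: bound reporter read as fluorescence of individual clusters on recovered sequencing chips by microscopy, with normalized cluster intensities fitted with a binding model.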

As to “UAAUUUAUGUCUUUAAUAUAAUAAUCAGAUACCAGUGAUUUAUGACACCCUUGGCAGCUGUAUAGAGUGAUGUUCUUAUACAUAA [JR_Nu_ExcTheophyA_Sub020]”, the “apparent KD of K4 kissing-loop reporter” value runs as follows: (input ligand: FMN 200 uM) 388 nM; (input ligand: arginine 13.2 mM) 504 nM; (input ligand: none) 483 nM; under setting [1], 547 nM; under setting [2], 294 nM.
In the case of “UAAUUUAUGUCUUUAAUAUAAUUUUCAGAUACCAGUGAUUAUUAACACCCUUGGCAGCUGUGUAGAGUGAUGUUCUCAUGCUUAA [#07 K4 Theophylline A Exclusion]”, the “apparent KD of K4 kissing-loop reporter” value runs as follows: (input ligand: FMN 200 uM) 307 nM; (input ligand: arginine 13.2 mM) 354 nM; (input ligand: none) 365 nM; under setting [1], 373 nM; under setting [2], 229 nM.
As for “UACACGACUCGUGUAAACCGAGGUAACAGGCAGGAUAUGUAACGGAACAGAAGGGCCAUGUAGCGUGUCCAGUGAUGUUGGAUGC [Betilare]”, the “apparent KD of K4 kissing-loop reporter” value runs as follows: (input ligand: FMN 200 uM) 199 nM; (input ligand: arginine 13.2 mM) 166 nM; (input ligand: none) 186 nM; under setting [1], 180 nM; under setting [2], 173 nM.
“UACAUAUUAUUAUUUCUACAUUUAUUUAGUCAGGAUAUCGAUUAAACGAGAAGGGACAAUAUCAAGUGAUGUUUGAUAAUUCAAA [JR_SSFMNA_Sub022]”: the “apparent KD of K4 kissing-loop reporter” value (input ligand: FMN 200 uM) was 85.3 nM; the “apparent KD of K4 kissing-loop reporter” value (input ligand: arginine 13.2 mM) was 123 nM; the “apparent KD of K4 kissing-loop reporter” value (input ligand: none) turned out to be 81.6 nM; the “apparent KD of K4 kissing-loop reporter” value under setting [1] turned out to be 118 nM; the “apparent KD of K4 kissing-loop reporter” value under setting [2] turned out to be 60 nM.
Turning to “UACUAUAGUGAUGUUAUAGAUAAAACAGAUACCAGUGUAACAUAACACCCUUGGCAGCUGAUAAGGGAAAGUAUAAAUGUGUAUU [AstrosSSTHe-A#2newdesignED]”, the “apparent KD of K4 kissing-loop reporter” value reads like this: (input ligand: FMN 200 uM) 207 nM; (input ligand: arginine 13.2 mM) 188 nM; (input ligand: none) 199 nM; under setting [1], 208 nM; under setting [2], 186 nM.
For the sequence “UACUAUAGUGAUGUUAUAGAUAAACCAGAUACCAGUGUAACAUAACACCCUUGGCAGCUGAUAAGGGAAAGUAUAAAUGUGUAUU [AstrosSSTHe-A#3newdesignED]”, the “apparent KD of K4 kissing-loop reporter” value runs as follows: (input ligand: FMN 200 uM) 230 nM; (input ligand: arginine 13.2 mM) 198 nM; (input ligand: none) 228 nM; under setting [1], 219 nM; under setting [2], 205 nM.
For the sequence “UACUAUAGUGAUGUUAUAGAUAAACCAGAUACCAGUGUAACAUAACACCCUUGGCAGCUGAUGAGGGAAGUUAUCAAAAGAUAAC [AstroSTH-A#10designED4.80]”, the “apparent KD of K4 kissing-loop reporter” value was 227 nM (input ligand: FMN 200 uM); 190 nM (input ligand: arginine 13.2 mM); 142 nM (input ligand: none); 115 nM under setting [1]; 198 nM under setting [2].
The corresponding values for “UAGCGGUAGAGGCCACCGCUAUUCUGAGAAGGAGCGCAGAUGACUGCAGGUAGGUCGCUUAGAGCUUGCAGUGAUGUUGCAAGUU [Tebete]” are 171 nM, 175 nM, 179 nM, 145 nM and 131 nM.
For “UAGUCCGGGUGAUGGUCAUCACGUGGCGGGCGAGGACCGGUACGGCCGCCACUCGACUUUGCAGUGAUGUUGCAAACCGGACAAU [Exclusion - Tryptophan A (Freestyle 22)]”, the “apparent KD of K4 kissing-loop reporter” value reads like this: (input ligand: FMN 200 uM) 221 nM; (input ligand: arginine 13.2 mM) 192 nM; (input ligand: none) 201 nM; under setting [1], 225 nM; under setting [2], 259 nM.
On to “UAUAUAGUGACGGCCGCCACUAUUGUGAUUUAAUUGUUAGAGUGAUGUUUUGUUGUUUGAUUUUGUAGGACCGGGUUAUAUGUUA [vnbbwzmullin]”, for which the “apparent KD of K4 kissing-loop reporter” value by setting is: (input ligand: FMN 200 uM) 1090 nM; (input ligand: arginine 13.2 mM) 851 nM; (input ligand: none) 982 nM; under setting [1], 794 nM; under setting [2], 839 nM.
As to “UAUAUAUGAUGUGAUACCAGUGAAAAGCCAGUGAUGUUGGAGGAGCUGGUAUAUAAAUAAGACCCUUGGCAGCACAAUCACGUAU [#01 K4 Theophylline B Exclusion]”, the “apparent KD of K4 kissing-loop reporter” value by setting is: (input ligand: FMN 200 uM) 227 nM; (input ligand: arginine 13.2 mM) 202 nM; (input ligand: none) 212 nM; under setting [1], 221 nM; under setting [2], 214 nM.
The corresponding values for “UAUUUAAAUAAAAUAAAAUAAAUUGCUGAUACCAGAGCCAAUUGGCUCCCUUGGCAGCGGAUCGAGUGAUGUUCGUAAAAUUUAU [AK2 SS Theophylline A]” are 28.5 nM, 65.4 nM, 29.6 nM, 61.5 nM and 30.3 nM.
The corresponding values for “UAUUUAGUGACGGCCGCCACUAUUGUGAUUUAUUUGUUUGAGUGAUGUUUUGAUGUUUGAUUUUGUAGGACCGGGUUAUGUGUUA [awscmullin]” are 1080 nM, 733 nM, 938 nM, 804 nM and 708 nM.
As for “UCCAGGAAUCAUGUCGUAGUGAUGUUAUGACGAGGACCGGUACGGCCGCCACUCGUCGUGGCCGGUUCUGAGGGCUAAUCUCUCA [theeternabot_exclusion_KL_Trp_A_34]”, the “apparent KD of K4 kissing-loop reporter” value runs as follows: (input ligand: FMN 200 uM) 247 nM; (input ligand: arginine 13.2 mM) 214 nM; (input ligand: none) 273 nM; under setting [1], 227 nM; under setting [2], 632 nM.
As for “UCCCUAAAGGGAGAUACCAGUAAAGAAGUGACGGAGUGGAGUGAUGUUCCAUAUUACUGAUACCCUUGGCAGCUCUUUUGAUUAC [theeternabot_sameState_KL_Theo_B_47]”, the “apparent KD of K4 kissing-loop reporter” value (input ligand: FMN 200 uM) is 108 nM; the “apparent KD of K4 kissing-loop reporter” value (input ligand: arginine 13.2 mM) was 155 nM; the “apparent KD of K4 kissing-loop reporter” value (input ligand: none) stood at 113 nM; the “apparent KD of K4 kissing-loop reporter” value under setting [1] is 187 nM; the “apparent KD of K4 kissing-loop reporter” value under setting [2] stood at 93.2 nM.
Turning to “UCCUAGGCUCGAAAGAGCCUAGGAUUAUCUCAGGAUAUCCGGAAACGGAGAAGGGAGAAACUAGUGAUGUUAGGGAUUCCCUCUU”, the “apparent KD of K4 kissing-loop reporter” value was 421 nM (input ligand: FMN 200 uM); 110 nM (input ligand: arginine 13.2 mM); 145 nM (input ligand: none); 135 nM under setting [1]; 126 nM under setting [2].
The corresponding values for “UCCUGCAAUCGACCACGAAAGUGGAUGGAUACCAGAGUCGAAAGACUCCCUUGGCAGCCAGUGAUGUUGGAAGCAGGUAAAUAAA [#SwitchBubble 17 #K4Late]” are 364 nM, 359 nM, 445 nM, 288 nM and 406 nM.
The corresponding values for “UCCUGCAAUCUGCCACGAAAGUGGGUUGAUACCAGAGUCGAAAGACUCCCUUGGCAGCGAGUGAUGUUCGUUGCAGGUAAAUAAA [MatMod 8 - Jieux - Exclusion - Theophylline A]” are 194 nM, 163 nM, 200 nM, 180 nM and 168 nM.
The corresponding values for “UCCUGCACGGUCGAUACCAGCCUAUGCAGUGAUGUUGUAAGGUUGUCACUUUAGUACGAAGGCCCUUGGCAGCGAUGAUGUAACA [theeternabot_exclusion_KL_Theo_B_41]” are 601 nM, 470 nM, 604 nM, 504 nM and 464 nM.
As to “UCGAUAGCCAGCGAUACCAGCCCAGUGAUGUUGGGCACAUGGUUGCGGGAAAUCCUAUUGGGCCCUUGGCAGCGCUUGCAUGGGU [Anbixeza]”, the “apparent KD of K4 kissing-loop reporter” value turned out to be 127 nM (input ligand: FMN 200 uM); 118 nM (input ligand: arginine 13.2 mM); 119 nM (input ligand: none); 107 nM under setting [1]; 110 nM under setting [2].
For “UCGGAGGGAGCGGCCGCCACUGUAUUACCUCGACGAACGCCGGUUUUCAUGAAGUGAUGUUUCGCCAGGACCGGGCUAAUCUGAG [theeternabot_exclusion_KL_Trp_B_46]”, the “apparent KD of K4 kissing-loop reporter” value runs as follows: (input ligand: FMN 200 uM) 244 nM; (input ligand: arginine 13.2 mM) 202 nM; (input ligand: none) 235 nM; under setting [1], 217 nM; under setting [2], 206 nM.
